Experimental data published in the DeepSol protein solubility set.

Test: soluble on expression in E. coli; label from the status in PepcDB or PDB records

Row | Sequence | soluble on expression in E. coli
1 | RQGELSIACLPVFSQSFLPLLLPPFLSRYPEVSLQIVPQESPLLEEWLSAQRHDLGLTETLHTPAGTERTPLLTLNEVCVLPAGHPLAAQATLTPADFQGENYISLSRTDSYRQLLDALFLEHQVKRRMVVETHSAASICAMVRAGA | not soluble
2 | MSLDLPPGVVALVNGTRITQEQLDRAIAQSGAQANPQVAQALKQQLIARELFRQQAAKNPAYDKLPAVKQAMQEAHDAVITQAWLKDNIKPAPITEEQVKARYDAIVASLGDKEYKARVIQLGDDVTAAQVLAQLKQGGDFAKLAQQYSTAPNKVRGGDMDWVSFKVPVEEGKTQNLPLPLAREIAALGIGAASTAPVEVGSQRYIVKVEAARPTQVPGYDTVRPAIRQALETAELERVTVQVVGGLLKAAKIVQEGHHHHHH | soluble
3 | MSLKIAEAAARSGLSIDTIRFYERSGLLPPIARGADGMRRFSPETVDWLRLLASLRETGMELRAMRRFAELYRQGDATIPERRRILQDHAASLNGRRAALDRCAALLAHKLQRYCEIEGEGHHHHHH | not soluble
4 | GKLVRRVLSINEVLGYNPDKGGISFIEAFSWDPVTDTHVFSAMGSSYILENKIATRLGIPGKKKKAIYDEIEKRAKILERLSDEGIVNYWEFFNTIAKITKSGMLRIQ | not soluble
5 | MGSDKIHHHHHHMNNFFTRVDNLSRLSVEKHNVAFSLFDWPAHIAEDTWWQSPDVLSIALTDHIEQWDEAQLIKLAKWECINSFSLNYTGELELIQEVSRILDKVALSDAREYLYHLIDEENQHMWYFQKFCRAYGGKVYPNKKFQIEKQLMSPAKEHFLVFARILIFEEIGHYYNIQNARDSRVHPFVREINEAHYKDESRHIAYGRQVLEHLAKDAITDEGDALWLGQQLDKSIAINIAALYNPQAYRDAGITKGMALRESLLNHPNRIELHETKLLGSFKRHAERLGITLTDTRK | not soluble
6 | MGSDKIHHHHHHMKISNISYFNFRNLENTSIDLSDKINVFYGKNAQGKTSLLEAIYYSSTGISFKTKKTSEMIKYNFDEFISSISYQDYIANNKISVRFKNIAGAKKEFFFNKKRISQTDFYGKINIIAYIPEDIILINGSPKHRRDFFDIEISQIDKEYLTNLKNYDKLLKIRNKYLKENKRNSEEFAIYEKEFIKYASYIIFTRIEYVKSLSIILNLQYRKLFNIAQELNLRYETSLDKTAKVTIEMIQESLKREISQKKYQEDKYKFSLVGPHKDDYKFLLNGHEAKISASQGEKKSIIFSLKLSEIEIIKKNRKENPVVIIDDITSYFDEDRRKSILDFFNKRDIQVLISSTDKLDIEAKNFYVEKGIIKDESNINK | not soluble
7 | DEEDANFMQRAFEMNDKVASDVMVDRTSMSVVDVDETIADALLLYLEEQYSRFPVTADNDKDKIIGYAYNYDIVRQARIDDKAKISTIMRDIVSVPENMKVPDVMEEMSAHRVPMAIVIDEYGGTSGIITDKDVYEELFGNLRDEQDDED | soluble
8 | MGSDKIHHHHHHMIKEFNATVRYLESVLESEIDEREFLRISGYSVPMFSRLFSILTDMSLSEYVRLRKLTRAAMDIREGQAKIIDIAFKYGYESSDSFAFAFKQFHQISPSQVRKGLPFKVLLPLQLSLTIQGGKEMDVRIEKKAGFTVAGLLRTAISNEVCPQVWEDLFKNHTYEELAALGSGQSFGVCTLAQADETINYMAAYDVTDSEKATKLGLELLDVHEADYAIFTLIGPVPQSIHAGWRYALETFFPEHGYRHSGAPDFEYYFEGDMSSPDYQMELWIPIVKA | not soluble
9 | MDPLTGVPIRQEVPRLMERTFQENQAETYVLFLINLDRFKLVNDSLGEGYGDQVLQTLVRRLLWQLPNQQWIARVSGDEFIACAAIKGELPKKETLATYISSIIQQPFQVDEVQFTMTASIGAAVYPMDGKSVEMIWNSLERALRHAKARGGNCVSWFCQELKDEWIHPFRLENDLRRAVENQELEHHHHHH | soluble
10 | MGIVSAASLIKVINEKQLKMAQDQNPLTALPGNRAIGGFIADSCSDGDETRFFCYCDFDNFKPFNDKYGFNAGDHAITLFSALMRRYFFAGDCFLGHIGGDDFFIGVRDWSVEELMEILERLLSDFHDDVAGLYSDEDRAAGCMKGQDRNGLEHHHHHH | soluble
11 | MAHHHHHHMGEGTAAAPPHSQEPRLRRRPRQLTVRHVVHVQPTSYFAQFERRCRHDALLYSPFLREDRVQARPKTLPPSLHREVGEPGVYAAYNAYIFADVAGQHDPLHHRRVCAAADHGEEEAVAARVEAGGDVVVATNVSSPPRPDSSKSLSAVQLSLTPLLSFTLDDMADTADGDAGMGNRVECESGSTRIGEAHRCHPPPPLLHGTPPEAGLPLHKTWHLFTSYVQRHFTAFPTALVHRYHLHHLAPSLFPNVGAAALMQGAGGAGNATGDRAARSGTAVGVAISTEASGSGSAVRAARAKPNVSNSSSSSAEDVVEYWPYSLKLRCIPEATLQLPYKQHATAKKTTQAQQRAEMAGSARQAPSTVNASLGHDAATAAAVPSPHLPAPRKRERQVSSSGDSASAPAYTVHASASSSTATAATPRVLPPPAAAARTRPPSAPPRRVAVVDGVTSLLPYPTPASALALLSTTFLRSLRTSSVVAAAAAAAAGTGEVPATPSTLTESRADWHGGFAASHQRVDVPSTGMVGMGGGALGFLGTGSAVPSKYRNVSGTFLELHLPAYCFPGGGCPVKPLLHDDDSAHASGAAAVVAEDTPSATSASPPAGEAACARREGDAVLGFGSADSSTYSCGPATVSMDESQKTAPRRWSSAPLKMDSQQLRPWGGYPGLWRGQCRAARLSMRASPWR | soluble
12 | MSTLSQLKPASLWQLFEKICSIPHPSKHEQKISLWIQDWAKELGLAIKEDAVGNLFIKKPATAGMEDRKGIILQAHMDMVPQKNNDTDHDFITDPIKPYVIDSGDWVTAEGTTLGADNGVGLASALAILASDDIPHGPLEVLVTIDEEAGMTGAFGLEAGWLDGDILINTDSEQEGEVYMGCAGGIDGNATFALTLEDVPSNYQAFNLSISGLKGGHSGVDIHTGRANANKLLVRFLLSASIDFDISLTELNGGSLRNAIPREANASFVVAKDKVEALKVALADYLSTISANLGAIETDIDMLLISPEDFEQCWTKATQASILRALNACPNGVIRMSDDIEGIVETSLNLGVIHTRGSKLNAMVLIRSLHDDGRLETQRMVQSVFELAGANVVFSGAYPGWKPNTDSAIMQTVRDTYESIFNKVPAVMVIHAGLECGLFKTAYPHWDMVSIGPTIKFPHSPDEKIEIATVEQYWQLLVAVLANIPKKLEHHHHHH | soluble
13 | MEPHKVVPLSKPHPPVVGKVTHHSIELYWDLEQKEKRQGPQEQWLRFSIEEEDPKMHSYGVIYTGYATRHVVEGLEPRTLYKFRLKVTSPSGEYEYSPVVSVATTRE | soluble
14 | MAGDPMSRRVIRTYKLAVPGHLSQTCEELNRTAARIYNKTMSLVRKIHQKKGFWLSWPTADKYILRWAENIKIHVHSKQAFVQLYFQALKGYFKATKKNPDAKPPHKKKRYLPFIWKESAVKLLPDGTLRLSLGKERESFVVQTPLKPPLRIKQTRLVFEDGYYLHLAIEVEIEEKNAGSGVMAVDLGVLRPITCFDGKEVISYHGGVLSSVLRYRNKRLASFQSAIAECKKGSRRYNKLVRAKKRVLRRLRNQINDIMHKITSNFIGLCLRKQIGTIVIGDVTGIRERADYSDNANQKIHQWQFRKLIEMIRYKAEQFGIEVKLISEANTSKTCPVCGAKNNPNGRRYHCKACGFEYHRDGVGAINIWKRYPGTGQVVAGLAPVRGVRFHPHLCGHGASLAPWKVALEHHHHHH | not soluble
15 | MGSDKIHHHHHHMKFLNVIFKGHSISELIQEVIYVFIGYFFLMISYCTPRNKKKWVFGNKKIFKDNTKYLFIYMQEQHPEIQTIWITSSRRLVKRLRALSYSAYYKYSLKGLYHSLTAGVYVSTVNSNHINFFTSGRVFNVNLWHGISLKAMVDNKAVPADRSFLSRVCMPYVYEQYGLFFSTTPTIDDQYLRFFRFDPQVLYHGMSPRCSFMMMDHERLLRYIEEKEDPLMLDIIHTSRKYNKVFVYMPTWRINYGTHFMDYAFPDLYALNKAFSKINAILLLKLHPSMTYDAFKYKDLKHIYYIDANIDLYPILPFTDIMISDYSSIWYDYLLLPNKGVIHYDFDVDSYAKNEFGFFRDYKTFTPGVHASDFKQLLATIESSSSLQISEERRTWILDEMWGKGRSTNNEDLIKEICKRVEQVL | not soluble
16 | MSGNSGASPQDMVKKLVYLSCTLNQKCGQRTGPHREPEPFLGFSVRDRSGLEGAIASVFQSSFDVLLYPTIYDQAAALLFKLANGHYFQDGNKRTAFHLCLAYLRANNVHVSPPRSDDVITLLQTTVSRSGSQENGIAFVRQKLLDWTVD | not soluble
17 | MGSDKIHHHHHHMALMFPRLARNFVKNGYFPTDEPTLERALNALMPSDGSMCILDPCAGEGVAIAEAAHALGREQVKAFAVEFDAERARHARGLVDHCLHADLMDAMISKQSFGLLWLNPPYGDLSKDVNGNIGYQGQGRARLEKLFYQRSLSLLQYGGVLVFIVPGYVLDAELVGWLTRHYTDLRIYRAVETQFKQVVIFGRRVRQREQAPDGVKAVRNLLLQVGLGEVEAEELPSDWPFLPYIVPASPAEPEHFFRVTMEPEQFADEVGRLQGLWPSLDTHLGAAQQSLRPPARALSHWHLALALAAGAISGVVRSKTGRVLVVKGDTHKDKTLQREFTEREDGSIAETRILTDKFVPVIRAWDMTPSSATRGEVLTIR | not soluble
18 | MSLEELVKKLGDKLNEAEADAKKFGKLIGRITRFESVSLKDNELIGVDIAFEDYLNSDVKKGQYLAIRSITRPVTILGQVRAITRADALSKLGIRELSYPKDPTTIITTTYVELKPIAEIENGKIRPPVSPVDPQSPVFIPNHDLIEKILNIPSRGITIGKIFSGGEETDASVRLDEYTLRHHTLILGTTGSGKTTLLKSMISSEEIDKGTFIFDRQGDFINYLIEKRRGFAVIMPVVEEASRSISLKDHAEKFANWYDCDNILDVKEDGVLEECNGSEVFLIPYSINFYSVLKNFNKITPYFTPKASMYWEAIVNNMFEIIGYDLYELADKKQTFYEDQLSDFLRDRLTPGSLLGKISGFYDLKMVSGSKSKQFSSYDGSKKMLTINMGKAFEEAMKRLDVPYQTKEAILRTLKAYDSYGIFTVPGTVDFKPKDVFSSYSDVVVDLSWVMNRSASIEAVATIAYKLLEDFFNWKDELYKMKETTKLTLVIMDEAHEYFPQTDQENVSKDIVEGLINRIMRLGRVRNIGVVLATHVPEDLNPLVLQLTNTKVVMRNESHVLRRLGLEEYEDFLRHATPGLAIVYSIYFSEVPIKTIQREGHHHHHH | soluble
19 | MASSMRSLFSDHGKYVESFRRFLNHSTEHQCMQEFMDKKLPGIIGRIGDTKSEIKILSIGGGAGEIDLQILSKVQAQYPGVCINNEVVEPSAEQIAKYKELVAKTSNLENVKFAWHKETSSEYQSRMLEKKELQKWDFIHMIQMLYYVKDIPATLKFFHSLLGTNAKMLIIVVSGSSGWDKLWKKYGSRFPQDDLCQYITSDDLTQMLDNLGLKYECYDLLSTMDISDCFIDGNENGDLLWDFLTETCNFNATAPPDLRAELGKDLQEPEFSAKKEGKVLFNNTLSFIVIEA | soluble
20 | MMNNMDSIINYIYEGDYFIVTSHISPDGDNIGSTLSMYYTLKNLGKNVYYVLDDEAPLNLRFLVEGVKIYKSNEFNMKNYSLIALDCGDKMRICVSDEIKNNASKLICIDHHASNDSYGDLNYVDIDASSTCELVYNLLVRFQQIKDINIINEDIATCLYTGLVTDTGNFSYSNVHASSFEMAKNLLVLGAQKNTIIQNIYQSNSSGYYKLLGEALKGLEIFDSKVSSIVLTQDMMNRNNISFNDVDGITTYTRDIKGIEVGILFKEKKQNEIKVSFRSKNYVDVSEIAKLFGGGGHVRAAGCTIRDSIDNAKKMVLEAVLKSI | not soluble
21 | ADTPGEATPPPRKKKDIRDYNDADMARLLEQWEKDDDIEEGDLPEHKRPSAPIDFSKLDPGKPESILKMTKKGKTLMMFVTVSGNPTEKETEEITSLWQGSLFNANYDVQRFIVGSDRAIFMLRDGSYAWEIKDFLVSQDRCAEVTLEGQMYPGKGGGSKEKNKTKPEKAKKKEGDPKPRASKEDNRAGSRREDL | soluble
